Measured values from the DeepSol protein solubility set.

Assay: soluble on expression in E. coli; label from the status in PepcDB or PDB records

Question: With “MAHHHHHHMKRENVSFPHAQSNVVSNLDGNTLLNDSLVQQSCSPTESKEDVKTEYDSFVDAPVIPLTEKFDDNYSQPVSTVNPRDDSIKCEMDVLPASSLTSVCNRKVIHGEKVDNDRVKIVRDWLLMPVLSQDSDFEGDGDDFIDTLLHIAEDKMYLYGFYERLGQTELVTTRRINNRKRSRGSNGISHATGNQGAQAPVMATSPPQVLPFSFVNWLPNSGKGRCDPERVHQQTISSDAILCSGEKYTLCRYALSSGKLRKECADPYQFLTAKLQEIRHCMEEELMGDAKNSNEKKTGVTDY” as the sequence, how does the “soluble on expression in E. coli” value read?
Answer: not soluble

Question: For “MPKLILLGDSTLDNFNWVPNKATVTDHLRRQLPKMEILNFAVDGFTTDSILYGEYKDCAVTSSQHTHKYFEPLKALENEQDVEHIVLSVLGNDFRIQLSKLIFMAPEERPKAIEQLINHIIKNYIQVVKEIRKVQPNAKLSIVLQYTPYVENDPYLIYFLMDKLFHHGTVSHGFLSYLQIMYYSIFGLNSKHEQQALNLLHKLMAKVYRNVFNELGDNSLAIIDLASSFDYRNSKLYKAQIEPSDEGGKLIASLITHTITHHDFQNESMLYAKPPLQPNPKILAVPLTKLKKDWFPQQIYVTQEQAITAFKQAYLLQLNKDRQSYLGLYSFFARSNVDFEHATLEKLIVHAQNYSTKKTGYRTLKVMQNLGWLTEQGNIKEESGIVRLLKN”, which “soluble on expression in E. coli” value is on record?
Answer: not soluble

Question: With “AIASPQDTCCPPDSWPALKVDYKPKGKLEDIGKGLKAYVVGNGPRAVIALNDVFGIESGHSKEICDAIADKGFTVVFPDVFRGKPLQVSDMSKLFDELPGWAKQFDYEPALRKDVVEVILPYLHDKLGFKSNDQIALAGFCWGAFMLFHLAGDTKLPGGPFACGVSFHPSVQIEGVFQRDPLQLIDRATCPQLLLPSAGEPDYMKEEGDAIKKLRAKPFGASCGVKTFPSMQHGWVNRGDRNDPQVVKEAQEALQLAVDFMMRHTKPKA” as the sequence, how does the “soluble on expression in E. coli” value read?
Answer: soluble

Question: With “MRKTRNQAGARQALKQLGMRNTSRSAAPRRGCVLSCFFEHLSLYDHSFFPHHSSQMFLFLKDSRFRKKMASQQDASPPTGYNMGHRHSLTIETNPLHLLPSNMRRFSQADTARHPAAPLLSKLAARQQIPEAVAEKKDDEKPENK” as the sequence, how does the “soluble on expression in E. coli” value read?
Answer: not soluble

Question: Which “soluble on expression in E. coli” value does the source give for “MGSDKIHHHHHHMLMNIGKVDNIKIYTLAEDYAGYNSPFWSQHGLSFLIEVESNGIKKRILFDTATYAEPILFNMKLLNINPKSIDMIILSHNHFDHTGGLFGIMKEINKEIPIFAHPNIFKVSFATEPEFMLAGTLNKTLKEDIEKLGGRWVLSRDPIRLMPGIFTLGEIEDEEKINFEKKPTIGLYKLENGRVVLDNVEDEIGLAIVTEKGLIIVSGCSHPGIVSMVKKSIKISGINKVYAVIGGFHLIDADNERIVSTIKALKKLGVKKICTGHCTGFKAENMFMEEFKEDFERLHAGKIIKF” here?
Answer: not soluble

Question: With “HMLLTTSRKPSQRTRSFSQRLSRIMGWRYINRGKMSLRDVLIEARGPVAVVSERHGNPARITFLDERGGERGYILFNPSFEMKKPELADKAVRVSSCPPGSEGLCNLMGLEVDESSSRDAWSIRTDEEYAWVMELMDARGTPAGFKLLIRDFRVGE” as the sequence, how does the “soluble on expression in E. coli” value read?
Answer: soluble

Question: For “MGGGGGGMEQFNAFKSLLKKHYEKTIGFHDKYIKDINRFVFKNNVLLILLENEFARNSLNDNSEIIHLAESLYEGIKSVNFVNEQDFFFNLAKLEENSRDTLYQNSG”, which “soluble on expression in E. coli” value is on record?
Answer: soluble

Question: For “METYDVLVIGGGPGGSTAARYAAKYGLRTLMIEKRPEIGSPVRCGEGLSKGILNEADIKPDKSFIANEVKGARIYGPSEKRPIILQSEKAGNEVGFVLERDKFDKHLAALAAKAGADVWVKSPALGVIKEDGKVAGAKIRHENNVVEVRAKMVIAADGFESEFGRWAGLKSVILARNDIISALQYRMINIDVDPDYTDFYLGSIAPGGYIWVFPKGEGMANVGIGSSINFIHNRLELKNYLDRFIENHPGLKKGQDIQLVTGGVSVSKVKMPITMPGLMLVGDAARLIDPITGGGIANAIVSGMYAAQVSKEAIESNDYSPQMMGKYEKLVKDRFERKHLRNWVAKEKLAQLSDETLDKLVDIVSEQVLTTISVEAILKAIAEKYPEVVKELEDLILEHHHHHH”, which “soluble on expression in E. coli” value is on record?
Answer: soluble

Question: Which “soluble on expression in E. coli” value does the source give for “AHHHHHHGSKFEELNEKIKKVYGKVRTIDDFHWHISDNLIHGIHKKSGLRLEIRIAESKEAADKIAQKKEPGNLMVIVVPGKETFYVNNGAFVLALKFLRSTIQDISDHIVWAGFKVVERDGALEQEDIYEYLGGRLIEHIKSGMVNGKDYIFWQFYKCEHCGKYVDIENLVRHMKTHGEDVKEWSEEKYEVLELSFEDKKVYNKFGKEVPLEEFVEETQDFIKEVFES” here?
Answer: soluble

Question: With “MTEIQKPYDLKGRSLLKESDFTKAEFEGLIDFAITLKEYKKNGIKHHYLSGKNIALLFEKNSTRTRAAFTVASIDLGAHPEFLGKNDIQLGKKESVEDTAKVLGRMFDGIEFRGFSQQAVEDLAKFSGVPVWNGLTDDWHPTQMLADFMTIKENFGYLEGINLTYVGDGRNNIAHSLMVAGAMLGVNVRICTPKSLNPKEAYVDIAKEKASQYGGSVMITDNIAEAVENTDAIYTDVWVSMGEESEFEQRINLLKDYQVNQQMFDLTGKDSTIFLHCLPAFHDTNTLYGQEIYEKYGLAEMEVTDQIFRSEHSKVFDQAENRMHTIKAVMAATLGS” as the sequence, how does the “soluble on expression in E. coli” value read?
Answer: not soluble

Question: For “MGSDKIHHHHHHMDAAKDDLEHAKHDLEHGFYNWACFSSQQAAEKAVKAVFQRMGAQAWGYSVPDFLGELSSRFEIPEELMDHALELDKACIPTRYPDALPSGSPRNRYSRIEAERLVNYAEKIIRFCEDLLSRI”, which “soluble on expression in E. coli” value is on record?
Answer: soluble

Question: For “MGHHHHHHSHMYAKEIFSYMKEREEQFILTDYMNRQIEITSDMRAILVDWLVEVQVSFEMTHETLYLAVKLVDLYLMKAVCKKDKLQLLGATAFMIAAKFEEHNSPRVDDFVYICDDNYQRSEVLSMEINILNVLKCDINIPIAYHFLRRYAR”, which “soluble on expression in E. coli” value is on record?
Answer: not soluble

Question: For “MGSDKIHHHHHHVTLDQLLMFRTVAEAGSLKAASNKLHKTQPAISQSIKQLESQLDLILFNREGYRLAITEQGRKLLQHTLRVLNEAQEMKQVAKHLAKGNEASITLAFEASFNLARILPILELTQNEFPYTQIILKQEFLTGALEALNQDKAEIIISAGGIEPIRSSHLELAYLFSGSLLDVAAPRLLSRYPNLSHVRELVNEYQIVIQDTGTGTANIEFGVQAGQRRWYVNDFYTKKMLIQSGMGWGKLPHYMIEDSLKQGALIALDLRERQNNIQLDYYVMRKPHSPLGPVAQALWQKLIAFSLS”, which “soluble on expression in E. coli” value is on record?
Answer: not soluble

Question: Which “soluble on expression in E. coli” value does the source give for “MPSYKLTYFNARGYGEAARILFHLADVPFEDFRMTHGDGTWEKLKEKTPLGQVPVLSVDGFEIPQSAAIIRYLANKFGYAGKTPEEQAWADAIVDQFKDFMGSFREVGKAHAAGKPAEEIAKIMQSDVVPARDAFFVIINGILEKSKSGFLVGDGLTFADIVVVECITTLDKNQLFTPAGEPKLVALREKVYAIPAIKKWVEIRPDTQY” here?
Answer: not soluble

Question: With “MDGEEKTYGGCEGPDAMYVKLISSDGHEFIVKREHALTSGTIKAMLSGPGQFAENETNEVNFREIPSHVLSKVCMYFTYKVRYTNSSTEIPEFPIAPEIALELLMAANFLDC” as the sequence, how does the “soluble on expression in E. coli” value read?
Answer: soluble

Question: For “MGSDKIHHHHHHMGVMKTPGVYIVEKNAFPNSVVEVATAVPAFIGFTQKAINGNKSLLNKPWRITSMAEFRRYYGEAPEPEFEIAEKPADSLEDAAIVMGDKSYVISQSNTKYLLYYSMMLFFQNGGGPCYIVSVGNYTNDVEAAKLLAGIPTLLKEQEPTMLAIPEAILLAEDDCISVQQASLAHCGGVMRNRVAILDVWNGHLDRQDPSGDCIESFRSKLGINYLDFSSAYYPWLHTTIVQDSDLSFKNIANTDVLIGLLKEEVTASFTDLDGLTDDQLASPSNKLRVAKRDQMLTEVDSLATVAGDAQIVLLNKTLSSMSPLYMSILLDIKGKLNLLPPSACMAGIYTMVDNARGVWKAPANVSLNAVVSPAVNISHDEQEDLNVTTQGKSINAIRTFIGEGTLVWGARTLDGNSLDWRYISVRRTMIMLEESIRLAAKAYVFEPNTANTWTTLNSMITNFLTGIWKRGGLAGSVPADAFSVSVGLGSTMTSEDILEGILRITVLVAVTRPAEFIEITFQQQMQKS”, which “soluble on expression in E. coli” value is on record?
Answer: not soluble

Question: Which “soluble on expression in E. coli” value does the source give for “MTENNKLQTIEQQLVQEKNVSDNVLNKVRVLESQGNLELPNDYSPSNAMKQAWLQISQDNKLMSCNDTSKANALLDMVTQGLNPAKNQCYFIPYGNKMQLQRSYHGNVMMLKRDAGAQDVVAQVIYKGDTFKQEMGETGRIKAIKHEQDFFNIDKENIIGAYCTIVFNDGRDNYIEVMTIEQIKQAWMQSSMIKDEKALQNSKTHNNFKEEMAKKTVINRAAKRYINTSTDSNLFKYAQESEQRQRKEVLDAEVEENANQEQLDFEQPVLEEAQYTELENDKPIDVSDFEEIKEPATEKESEEEPF” here?
Answer: not soluble

Question: For “MTKIRQKSRKPGRTSRAKPVVAVVWYEDEQEWRAMRDLADDPERFEDSYEAWLTMFDRSLERLREGGAFPVRTPCNATKYREWCESKARSFDACSRSEYAAREFQARATQDE”, which “soluble on expression in E. coli” value is on record?
Answer: not soluble

Question: For “MMIFEKIHTVPTSEELTNKAFKRAARAMSGKTIDGRDSRFKANESMLLTAANIFTDNLANIVRRFPSFEQLPRFYYELTDILVGVEKLKMSLASVDWASRKIHEVARSYVGKIRESDIPEPVRKEAFGRLASIINSINKDLLFLNEARNILRKLPDVQDEPTIVIAGYPNVGKSSFVSKITGATPEIAPYPFTTKGVTIGHFTRDGVRYQVMDTPGLLDRPMAERNDIERQAITAIHYLDAVVMVVIDPSESCGYELQDQRRLLAEIRENFNLPLLVVANKADRPEFMKMDEVELNMSTITGEGIEQVMDRLLEMIEEKRLRSLEEAPSEESDDESALLEHHHHHH”, which “soluble on expression in E. coli” value is on record?
Answer: soluble

Question: For “MNIFVNMRIMVAHTPDPDDAFMFYGMFEGKIRTSNQYEQVIKDIETLNKESKEGKYEVTAISANGYVQVRDLYKLTRSGASFGISYGPIVVARNEIDLSKSRMGVPGFMTSSYLLYRMFGPEAKEYVEIKFDEIPDAILTGKVDAGILIHDEQLTFQKRGLKEVFDIYSAWKSYAGNLPIPLGFNAIRKDLDEDTVNKFLYDFERSIRYAMAHEEEAVKYAMKYARYTDLDLERRFVRMYVNELSIDFGDTGRKALELYYNRAAGKGLIPPFKPEIV”, which “soluble on expression in E. coli” value is on record?
Answer: not soluble

Question: With “MQKTFEEYERFFTTEKDMIPATIFTAPKKKFLQADSKFYEKRRVWILVISQHLVDNNLRSEDVRRFFHLESPDDDENNVDLGPSERKTATANDFDYLTTIGKGSFGRVYQVRHKETKKIYAMKILSKEHIRKKNEVKHVMAERNVLINNFKHPFLVSLHFSFQNKEKLYFVLDHLNGGELFSHLQREKHFSESRSRFYAAEIACALGYLHEKNIIYRDLKPENLLLDDKGYLVLTDFGLCKEDMQGSKTTSTFCGTPEYLAPEIILKKPYDKTVDWWCLGSVLYEMIFGLPPFYSKDHNEMYDKIINQPLRLKHNISVPCSELITGLLQKDRSKRLGHRNDFRDIRDHPFFLPVDWDKLLNRELKAPFIPKVKNAMDTSNISKEFVEIQIDPSSLAPQQLAVTHRDHDFENFTFVDTNRVLV” as the sequence, how does the “soluble on expression in E. coli” value read?
Answer: not soluble

Question: Which “soluble on expression in E. coli” value does the source give for “SNANNLFVYCEIEEGIVADVSLELLTKGRSLANELNCQLEAVVAGTGLKEIEKQILPYGVDKLHVFDAEGLYPYTSLPHTSILVNLFKEEQPQICLMGATVIGRDLGPRVSSALTSGLTADCTSLEIGDHEDKKEGKVYKNLLYQIRPAFGGNIVATIVNPEHRPQMATVREGVMKKEIVSPAYQGEVIRHDVKKYVADTDYVVKVIERHVEKAKNN” here?
Answer: soluble

Question: For “VTAHSIARRFGAPIETLARAADRIGEGDFDVTLPMTNVAEVGQLTRRFGLMAEALRQYRKTSVEEVLSGERRLQAVLDSIDDGLVIFDNQGRIEHANPVAIRQLFVSNDPHGKRIDEILSDVDVQEAVEKALLGEVQDEAMPDLVVDVAGESRLLAWSLYPVTHPGGHSVGAVLVVRDVTEQRAFERVRSEFVLRASHELRTPVTGMQMAFSLLRERLDFPAESREADLIQTVDEEMSRLVLLINDLLNFSRYQTGMQKLELASCDLVDLLTQAQQRFIPKGEARRVSLQLELGDELPRLQLDRLQIERVIDNLLENALRHSSEGGQIHLQARRQGDRVLIAVEDNGEGIPFSQQGRIFEPFVQVGRKKGGAGLGLALCKEIIQLHGGRIAVRSQPGQGARFYMLLP”, which “soluble on expression in E. coli” value is on record?
Answer: not soluble
